± gives the standard deviation of the averaged measurements.
Test system: Saccharomyces cerevisiae
Test: protein stability index of tFT-peptide fusion (C-terminal peptide) (PSI (0-1 scale)); higher = more stable (slower turnover)
Conditions: genetic background: wild type; temperature: 30 C
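Note: PSI is a weighted mean of sequencing reads over stability bins, variants kept only with over 10 reads, mCherry proximal and sfGFP distal, peptide attached via GGGS linker.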

Sequence | protein stability index
LKRSYKKQRDNV | 0.698 ± 0.14
SVLAIASVIGCL | 0.598 ± 0.032
PHQCLSFPPRFK | 0.744 ± 0.082
HVGEVERGGMGG | 0.7157 ± 0.0021
SIKGLVRSIALN | 0.638 ± 0.0064
LPPLPPLILFPL | 0.684 ± 0.082
PPPPPLHSSPWL | 0.737 ± 0.14
RLGCGFGGGEEV | 0.674 ± 0.032
GGLSGRFRSPSL | 0.754 ± 0.081
SLGWGRVNVCGV | 0.666 ± 0.0031
WGGRNWDGRGCG | 0.612 ± 0.068
LVLFFRSYCLVV | 0.5142 ± 0.0036
SKGFVIMRAACF | 0.572 ± 0.018
AIRGGPGGDKEP | 0.682 ± 0.024
GWSVGQSEMNTY | 0.73 ± 0.056
FLFRLWGLLAEG | 0.583 ± 0.082
RGRRGAGTGRGP | 0.657 ± 0.019
CKRDENKKIILR | 0.727 ± 0.014
FFVGAGVTEGLG | 0.692 ± 0.033
PPPSSPTSGHSP | 0.771 ± 0.19
HRDRPYTPLSRF | 0.722 ± 0.13
PPPVPPLPSPLP | 0.649 ± 0.022
VEFGGICSYVGC | 0.724 ± 0.036
APRCCPHLLRFR | 0.655 ± 0.055
VNYRVWRKRGGR | 0.644 ± 0.057
ICRGGYELLELG | 0.68 ± 0.026

Sequence | protein stability index
PSPVPPSPPPSP | 0.512 ± 0.083
PLPPSSSPSSLP | 0.71 ± 0.077
FICGFRYHTVYR | 0.652 ± 0.043
EAQGVEMMGWAV | 0.696 ± 0.025
EVVCLGKTTLKR | 0.692 ± 0.041
VYHMFHLGPSFD | 0.7051 ± 0.0015
RGFVVGGGGWLG | 0.706 ± 0.051
WILFQAGSREIR | 0.701 ± 0.017
LSGSSNRVLFDL | 0.728 ± 0.053
RFFGAVSFQFCL | 0.699 ± 0.011
MSEFDVPLPIYM | 0.716 ± 0.063
PPPGPSRRPAAL | 0.726 ± 0.017
VGRTNHSRVFRT | 0.627 ± 0.035
PLPRPPPTATGD | 0.687 ± 0.013
PPPPRVLSPAWS | 0.649 ± 0.072
GVGQEGVGGRAV | 0.707 ± 0.03
PPPRPTHSRPGP | 0.64 ± 0.057
ARVDGGGVRTDV | 0.7511 ± 0.0069
RKDEKRGTVIIA | 0.62 ± 0.021
RWGCHFWVGFVG | 0.544 ± 0.046
WSLLLLPEFSLR | 0.705 ± 0.012
FHVVPLTSPPPV | 0.755 ± 0.03
RTRRGRIGEIGP | 0.703 ± 0.037
ASALIFTPPSFL | 0.686 ± 0.12
PPTPSPATSPPP | 0.713 ± 0.034
GATLETPIGCGR | 0.666 ± 0.0074

Sequence | protein stability index
PCLLTNLPILPT | 0.626 ± 0.077
GGSSVGALGCLC | 0.687 ± 0.0084
SLRLPPPTDTDS | 0.681 ± 0.03
TVGSLNSEIAGK | 0.691 ± 0.057
VRFARSGPAHVC | 0.6607 ± 0.003
LPASAPFPLSPP | 0.7 ± 0.035
LPPPRPHLSFVP | 0.72 ± 0.012
DVGGDGDCVVSS | 0.661 ± 0.0024
RVVMIYAQWCLP | 0.623 ± 0.011
PPPPPPPHPPHL | 0.728 ± 0.031
RLLSPPPPPPPV | 0.701 ± 0.071
RRLRGGTQAEGE | 0.682 ± 0.068
NSPPPPRLRSSL | 0.6937 ± 0.0018
MGSQATPQRENS | 0.659 ± 0.12
RASWVRTLMSCQ | 0.58161 ± 0.00022
PPPPRPPRDPPR | 0.6629 ± 0.00098
VESSSMKGLLCD | 0.66 ± 0.095
GSTLWGRAWGAR | 0.724 ± 0.02
PAPPPLLPPPPP | 0.597 ± 0.016
GRQRGGRENEGE | 0.673 ± 0.064
GPFGCLRSLIRG | 0.642 ± 0.097
LLYAFSSFLRAP | 0.647 ± 0.046
YNFLQSGADPNR | 0.721 ± 0.016
TRTFRPPPALPH | 0.691 ± 0.068
TKRQTIEIIKKK | 0.809 ± 0.11
KSKKDQKKNHKK | 0.712 ± 0.0076

Sequence | protein stability index
RNKTNYIQKLTK | 0.665 ± 0.027
ILGIESLVAGLL | 0.697 ± 0.062
RNAEVWDNLFEG | 0.6969 ± 0.0061
KRRKKTQESSKA | 0.726 ± 0.049
CPSRCGLRAPYL | 0.706 ± 0.017
TPVPPLLSRCYP | 0.691 ± 0.044
PGRSATSCPFLG | 0.671 ± 0.019
SCTPEDGRVRYT | 0.66 ± 0.048
SPGLQPVACPSF | 0.639 ± 0.019
CFRPFSARVVVL | 0.565 ± 0.016
QVFKHVKHIEFD | 0.725 ± 0.062
NGGCCLVFRIEP | 0.643 ± 0.029
HGSDTSIALRSG | 0.622 ± 0.038
DGALWGTDRGAG | 0.701 ± 0.064
PPLPPHPPPGQQ | 0.697 ± 0.017
PPVRLLPCVCHF | 0.708 ± 0.049
YSRYAASYSMVV | 0.688 ± 0.021
LLRVMRAVFSGL | 0.623 ± 0.015
VWVWVGGGSRGC | 0.7121 ± 0.0041
LRPPLPPPCPPP | 0.599 ± 0.12
LQPATGPQRVIS | 0.665 ± 0.03
ISCVLSTVGVGH | 0.663 ± 0.044
RRKNIQEKKIKK | 0.725 ± 0.016
WGISRSLRPGEV | 0.739 ± 0.12
MWQSRSAYFGSN | 0.692 ± 0.075
MYHGKKTAGINV | 0.7 ± 0.037

Sequence | protein stability index
CRFPFRILHPPF | 0.68957 ± 0.00018
LGQWGGGLSGSV | 0.685 ± 0.033
PPSHPLSPLSRL | 0.722 ± 0.067
DHNTRGYQTKSR | 0.667 ± 0.031
DRNVMNGFTRPG | 0.659 ± 0.034
KKKKKKKGIILD | 0.737 ± 0.097
SFLRTRPHAPLP | 0.6363 ± 0.0021
SLRLHCSRQRRP | 0.649 ± 0.048
PPRPLPPHPLLL | 0.681 ± 0.049
QHFSSPQPVPYS | 0.696 ± 0.013
PLPAPPSTPSSP | 0.715 ± 0.034
CFSPAAPLLLPG | 0.689 ± 0.025
PPLTHASPLHLI | 0.585 ± 0.021
KNKKKKKRRTRK | 0.732 ± 0.067
FRSFALFGNSFL | 0.704 ± 0.0053
SATIRDILHCRF | 0.8435 ± 0.0021
GYRVNIDIKIVY | 0.5247 ± 0.0031
PTASDPLPPPPN | 0.867 ± 0.13
PSVLGCIVPLIW | 0.7197 ± 0.0043
PPPAAPPSSPLL | 0.765 ± 0.071
RSSLYLDVVLSF | 0.709 ± 0.097
ASRCEVGVRWGG | 0.683 ± 0.025
FFAGASRFSSWS | 0.752 ± 0.029
SPSFDLLFSPFD | 0.778 ± 0.01
PAPSYHPVSPTA | 0.713 ± 0.0096
AFWYACMSLHRS | 0.728 ± 0.07

Sequence | protein stability index
GGGSFVGLDFGG | 0.6567 ± 0.0036
SFLAHSFLPLPP | 0.631 ± 0.069
LPRRSSRRQYAA | 0.751 ± 0.022
LCPPPRPPRSHL | 0.941 ± 0.039
SPPRPPPSPTPL | 0.771 ± 0.033
GGGGFLGVVGVG | 0.58 ± 0.01
QTLQHLQTPSIS | 0.761 ± 0.092
CCKRWICLLRRK | 0.646 ± 0.012
YFLLLLLNSSTP | 0.528 ± 0.042
QVYGEWASAGWG | 0.718 ± 0.04
KKKKQKKKRKRE | 0.718 ± 0.028
TIIPRHTFLPAP | 0.723 ± 0.036
LPPPTLASTPPP | 0.77 ± 0.045
GGLGGVRAGREG | 0.711 ± 0.02
KHRSIRPYLKND | 0.72 ± 0.037
KRNKDFIYTYRL | 0.696 ± 0.013
LRLPSPLPSPPS | 0.6283 ± 0.0034
HVAETRLRDHGW | 0.714
RTSLGFSPLIHQ | 0.6818 ± 0.0057
YYGCGAFGFSVR | 0.695 ± 0.014
RDLYHPFQSHQS | 0.705 ± 0.019
ERKEERGREGKR | 0.628 ± 0.031
SSPFCPLFQNPL | 0.757 ± 0.056
RSTVFCSTFVHD | 0.672 ± 0.014
PPPPRPLPSSNG | 0.76 ± 0.049
DTDLWFASVFSS | 0.793 ± 0.022

Sequence | protein stability index
VGVGGVGGFFGC | 0.79 ± 0.037
GARGGGQSSFGE | 0.666 ± 0.012
AGCLSGPVDILL | 0.703 ± 0.046
RTKENYKRRKEK | 0.702 ± 0.12
RSLPLAPPLAPL | 0.742 ± 0.029
KRMKNELDIGMK | 0.7049 ± 0.0032
PPSHGYPPRLIP | 0.67842 ± 0.00022
GGVGRRVRLGAE | 0.625 ± 0.037
APPPLPPARSPP | 0.6541 ± 0.0056
PPLPPQLVQDLL | 0.72 ± 0.073
PHNTPRPELLPP | 0.613 ± 0.11
LHAPFPLPPPPP | 0.647 ± 0.026
AGSSSLRGRLRG | 0.69 ± 0.068
RGRWGGGRVVRG | 0.6944 ± 0.0062
CVVRADGVVGIL | 0.649 ± 0.012
FVGVRTLSRIKI | 0.696 ± 0.053
VGVGGGRWCGRG | 0.69 ± 0.059
RGSGCAFLFAWF | 0.654 ± 0.092
PLFRTPPPRPSP | 0.673 ± 0.14
VCGSILSVFRAY | 0.571 ± 0.0016
SKQKSKNYEAFK | 0.721 ± 0.039
SKRYREKIVRNK | 0.677 ± 0.04
TFFSAPLLPSIP | 0.73783 ± 0.00011
PPSLPPSPPLPP | 0.694 ± 0.011
AKLVESISEVAT | 0.6766 ± 0.0052
PFLCCPRMSHFL | 0.705 ± 0.013

Sequence | protein stability index
EKKKSKGRRKLM | 0.705 ± 0.081
IIVWVGAGLWGV | 0.594 ± 0.011
VCGGCCEVEVGM | 0.622 ± 0.041
PIPHHLRVASPA | 0.6162 ± 0.00068
PTIGTLPTVGDD | 0.656 ± 0.02
TCVRHKVQKSRE | 0.688 ± 0.058
EGAGGVVVEGLG | 0.68 ± 0.028
SKTEKELSNREF | 0.659 ± 0.025
APFPMVSSLSFL | 0.761 ± 0.037
ERSDRLWEVSKG | 0.685 ± 0.035
PRPPPSFPPDPS | 0.669 ± 0.049
VVRCVLSQKCLV | 0.578 ± 0.015
IRWKEIIDKWSY | 0.844 ± 0.038
LLLRGSGRSLAL | 0.709 ± 0.0082
QDLDTALLLHAF | 0.657 ± 0.018
ASLAACSLTNSV | 0.697 ± 0.053
WGGGGGLCGMWA | 0.679 ± 0.032
VESGVREEKCMS | 0.708 ± 0.11
SCGWRGGWWVMG | 0.691 ± 0.072
GHGEGPGRDLGG | 0.648 ± 0.055

— the supplement of paper PMC10724198
